These results are taken from US20170368132A1 (published 2017).

Experiment in all cases: yeast two-hybrid, human RAD51 mutant
One test addresses T1, Rad51 (A190L; A192L) (human, UniProt Q06609 1-339).
T1 construct: Human RAD51 mutant tested by Y2H; also called human RAD51 A190L A192L
T1 chain: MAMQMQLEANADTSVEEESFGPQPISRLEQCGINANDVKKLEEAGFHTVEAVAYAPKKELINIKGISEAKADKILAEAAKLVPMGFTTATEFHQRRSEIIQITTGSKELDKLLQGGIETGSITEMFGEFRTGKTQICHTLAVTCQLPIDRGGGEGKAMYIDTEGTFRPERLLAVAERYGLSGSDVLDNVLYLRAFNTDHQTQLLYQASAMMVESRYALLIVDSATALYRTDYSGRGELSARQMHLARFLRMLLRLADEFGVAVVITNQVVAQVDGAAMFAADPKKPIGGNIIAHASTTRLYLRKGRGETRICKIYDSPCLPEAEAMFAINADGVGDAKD
As to the method:
(§1) The ability of peptides to bind human RAD51 with various mutations was then tested by Y2H assay. […] While mutations affecting BRCA2 binding had no effect on peptide binding, mutations that affected RAD51-AP1 binding did disrupt peptide binding. As these mutations were at residues 202, 205, and 206, they were consistent with the previous fusion data showing binding somewhere in the 190-218 region, and indicated the peptide SEQ ID NO.:5 contacts at least residues 202, 205, and 206 of RAD51.

Test [1] has as its target T2, Rad51 (S208L; A209E; M210A) (human, UniProt Q06609 1-339).
T2 construct: Human RAD51 mutant tested by Y2H; also called human RAD51 S208L A209E M210A
T2 chain: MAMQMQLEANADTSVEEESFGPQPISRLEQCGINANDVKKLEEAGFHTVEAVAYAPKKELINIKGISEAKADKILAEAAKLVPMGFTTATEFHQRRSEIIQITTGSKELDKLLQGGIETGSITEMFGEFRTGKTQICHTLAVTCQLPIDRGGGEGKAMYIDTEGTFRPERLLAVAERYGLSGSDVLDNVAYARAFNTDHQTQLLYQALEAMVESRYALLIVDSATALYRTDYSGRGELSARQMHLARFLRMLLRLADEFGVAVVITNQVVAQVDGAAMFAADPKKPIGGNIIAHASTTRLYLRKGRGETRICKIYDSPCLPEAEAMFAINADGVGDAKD
As to the method: as §1

Another test deals with T3, Rad51 (S208E; A209D) (human, UniProt Q06609 1-339).
T3 construct: Human RAD51 mutant tested by Y2H; also called human RAD51 S208E A209D
T3 chain: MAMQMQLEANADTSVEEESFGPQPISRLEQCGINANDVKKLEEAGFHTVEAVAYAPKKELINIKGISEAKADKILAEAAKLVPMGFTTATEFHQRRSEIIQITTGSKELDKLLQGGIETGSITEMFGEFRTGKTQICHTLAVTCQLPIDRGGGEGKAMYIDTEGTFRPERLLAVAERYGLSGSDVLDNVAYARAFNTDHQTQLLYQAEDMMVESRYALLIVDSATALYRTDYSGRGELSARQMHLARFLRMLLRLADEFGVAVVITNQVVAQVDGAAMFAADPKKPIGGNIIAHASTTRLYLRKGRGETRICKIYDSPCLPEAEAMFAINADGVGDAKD
As to the method: as §1

Test [2] has as its target T4, Rad51 (Q202R, Y205D, Q206A) (human, UniProt Q06609 1-339).
T4 construct: Human RAD51 mutant tested by Y2H; also called human RAD51 Q202R Y205D Q206A
T4 chain: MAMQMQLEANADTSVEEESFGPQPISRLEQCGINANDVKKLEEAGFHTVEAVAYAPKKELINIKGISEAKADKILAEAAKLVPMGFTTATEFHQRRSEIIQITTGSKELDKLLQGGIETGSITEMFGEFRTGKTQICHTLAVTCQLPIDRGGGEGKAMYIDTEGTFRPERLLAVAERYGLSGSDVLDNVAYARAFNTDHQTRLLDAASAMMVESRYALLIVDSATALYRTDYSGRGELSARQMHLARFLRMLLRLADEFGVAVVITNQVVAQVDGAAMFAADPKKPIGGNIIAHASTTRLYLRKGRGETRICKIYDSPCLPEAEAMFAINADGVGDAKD
As to the method:
as §1

B1: compound 5 peptide sequence (SEQ ID NO.:5) (peptide)
peptide: KRRRRRRRKRLGVRLRVSRML
Consider B1, for which the binding result is “binds” in the test with Rad51 (A190L; A192L), “binds” in test [1], “binds” in the test with Rad51 (S208E; A209D) and “no binding” in test [2].
